Source: patent US20230338524A1

Experiments:
[1] = molecular target: soluble murine VEGFR2 (murine) (UniProt P35918); assay: ELISA, OD450, panel 'mVEGFR2', antibody titrated (Log (M))
mouse VEGFR2 (mouse) = mouse VEGFR2 (mouse) (UniProt P35918); assay: Blocking ELISA, panel 'mVEGF-mVEGFR2'; blocked ligand murine VEGF; antibody titrated (Log (M))
Chain of mouse VEGFR2 (mouse) (P35918 20-762 limits assumed): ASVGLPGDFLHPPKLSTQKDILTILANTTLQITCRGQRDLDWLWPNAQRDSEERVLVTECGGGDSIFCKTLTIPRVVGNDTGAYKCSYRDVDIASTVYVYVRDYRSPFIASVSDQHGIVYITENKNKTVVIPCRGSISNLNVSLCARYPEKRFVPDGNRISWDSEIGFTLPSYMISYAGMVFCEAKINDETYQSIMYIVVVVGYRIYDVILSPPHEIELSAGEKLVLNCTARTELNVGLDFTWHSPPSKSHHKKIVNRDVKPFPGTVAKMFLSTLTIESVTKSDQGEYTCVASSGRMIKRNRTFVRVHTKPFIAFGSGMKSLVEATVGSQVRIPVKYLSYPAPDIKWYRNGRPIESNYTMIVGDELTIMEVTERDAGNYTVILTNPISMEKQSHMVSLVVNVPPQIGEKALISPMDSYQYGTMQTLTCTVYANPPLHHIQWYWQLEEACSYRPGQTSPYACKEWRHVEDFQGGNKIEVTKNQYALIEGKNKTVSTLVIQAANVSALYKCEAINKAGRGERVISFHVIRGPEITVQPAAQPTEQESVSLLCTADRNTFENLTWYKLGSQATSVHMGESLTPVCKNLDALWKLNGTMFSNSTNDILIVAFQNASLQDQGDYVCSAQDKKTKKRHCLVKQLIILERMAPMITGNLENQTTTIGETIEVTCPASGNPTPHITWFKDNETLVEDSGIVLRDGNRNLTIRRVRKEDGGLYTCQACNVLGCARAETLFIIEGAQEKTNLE

Chain of soluble murine VEGFR2 (murine) (P35918 20-762 limits assumed): as above

B1: DC101 (a murine monoclonal Ab that binds to murine VEGFR2) (antibody, from another filing, V domains shown)
VH: EVQLVETGGGLVQPGNSLKLSCATSGFIFSTTWMNWIRQTPGKRLEWLAQIEDKSNNYFISYSESVKGRFTISRDDSKSSVYLQMNNLKEEDTAIYYCSWKYRSNYYFDYWGQGVMVTVSS
VL: DIVLTQSPALAVSLEQRATISCKTSQNVDYYGISYLHWYQQKPGQQPKLLIYEGSNLASGIPARFSGSGSGTDFTLTIDPVEADDIVTYYCQQSKDYPYTFGAGTKLELKR
With B1 the EC50 (read off the curve) [1] was 0.3 nM and the IC50 (read off the curve) (mouse VEGFR2 (mouse)) was 0.5 nM.
